T1: Nectin-1 (UniProt Q15223 31-334, limits assumed)
T1 construct: Bought recombinant protein; also called CD111; PVRL-1
T1 sequence (looked up): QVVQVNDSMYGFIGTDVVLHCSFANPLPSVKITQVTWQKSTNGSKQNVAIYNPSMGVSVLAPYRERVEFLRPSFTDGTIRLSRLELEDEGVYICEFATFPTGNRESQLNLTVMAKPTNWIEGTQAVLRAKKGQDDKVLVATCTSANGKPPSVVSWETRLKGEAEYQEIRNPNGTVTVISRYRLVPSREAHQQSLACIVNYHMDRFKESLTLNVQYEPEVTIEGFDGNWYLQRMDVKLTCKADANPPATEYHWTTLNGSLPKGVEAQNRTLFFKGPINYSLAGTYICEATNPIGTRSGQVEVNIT

T2: Nectin-like-3 (UniProt Q8N3J6 25-367, limits assumed)
T2 construct: Bought recombinant protein; also called CADM2; IgSF4D
T2 sequence (looked up): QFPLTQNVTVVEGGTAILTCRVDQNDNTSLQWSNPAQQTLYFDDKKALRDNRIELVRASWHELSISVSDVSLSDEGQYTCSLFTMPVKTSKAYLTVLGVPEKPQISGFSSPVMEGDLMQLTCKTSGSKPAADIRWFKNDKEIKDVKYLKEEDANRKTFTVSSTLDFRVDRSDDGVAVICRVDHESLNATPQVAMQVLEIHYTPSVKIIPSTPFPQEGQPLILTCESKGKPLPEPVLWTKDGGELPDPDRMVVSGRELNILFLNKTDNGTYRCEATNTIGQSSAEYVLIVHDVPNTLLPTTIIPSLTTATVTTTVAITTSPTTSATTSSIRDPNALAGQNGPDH

T3: Nectin-like-5 (UniProt P15151 21-343)
T3 construct: Bought recombinant protein; also called CD155; PVR
T3 sequence (looked up): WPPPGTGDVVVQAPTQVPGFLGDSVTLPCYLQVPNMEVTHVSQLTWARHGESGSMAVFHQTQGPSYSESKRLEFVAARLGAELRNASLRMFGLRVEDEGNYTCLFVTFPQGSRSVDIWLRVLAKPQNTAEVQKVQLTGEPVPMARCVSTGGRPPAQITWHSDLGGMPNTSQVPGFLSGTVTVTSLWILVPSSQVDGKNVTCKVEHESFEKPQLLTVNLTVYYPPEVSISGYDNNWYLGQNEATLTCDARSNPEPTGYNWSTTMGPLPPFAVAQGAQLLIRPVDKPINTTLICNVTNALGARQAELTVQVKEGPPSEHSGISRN

T4: Nectin-2 (UniProt Q92692 32-360, limits assumed)
T4 construct: Bought recombinant protein; also called CD112; PVRL-2
T4 sequence (looked up): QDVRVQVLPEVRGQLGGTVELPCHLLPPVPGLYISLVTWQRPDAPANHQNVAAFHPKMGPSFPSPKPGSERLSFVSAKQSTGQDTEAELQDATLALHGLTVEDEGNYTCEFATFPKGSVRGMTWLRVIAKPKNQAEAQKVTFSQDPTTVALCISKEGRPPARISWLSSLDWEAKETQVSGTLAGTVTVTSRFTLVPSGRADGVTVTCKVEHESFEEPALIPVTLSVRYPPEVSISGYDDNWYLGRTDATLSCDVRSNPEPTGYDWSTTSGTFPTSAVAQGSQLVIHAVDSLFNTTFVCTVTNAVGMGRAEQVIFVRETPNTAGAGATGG

T5: recombinant human Nectin-4 protein (human, UniProt Q96NY8 32-349)
T5 construct: Prepared in-house (Jiangsu Mabwell) by transient transfection of CHO cells; also called PVRL-4; PRR-4
T5 sequence: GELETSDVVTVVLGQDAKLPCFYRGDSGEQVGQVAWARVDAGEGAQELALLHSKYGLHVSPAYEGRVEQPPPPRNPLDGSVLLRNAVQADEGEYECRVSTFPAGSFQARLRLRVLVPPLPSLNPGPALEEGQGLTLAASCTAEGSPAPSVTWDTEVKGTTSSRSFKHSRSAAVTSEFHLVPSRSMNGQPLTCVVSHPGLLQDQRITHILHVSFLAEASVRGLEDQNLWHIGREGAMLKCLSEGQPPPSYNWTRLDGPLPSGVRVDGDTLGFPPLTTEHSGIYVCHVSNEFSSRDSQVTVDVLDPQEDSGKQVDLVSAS

T6: Nectin-like-1 (UniProt Q8N126 25-330, limits assumed)
T6 construct: Bought recombinant protein; also called CADM3; IgSF4B
T6 sequence (looked up): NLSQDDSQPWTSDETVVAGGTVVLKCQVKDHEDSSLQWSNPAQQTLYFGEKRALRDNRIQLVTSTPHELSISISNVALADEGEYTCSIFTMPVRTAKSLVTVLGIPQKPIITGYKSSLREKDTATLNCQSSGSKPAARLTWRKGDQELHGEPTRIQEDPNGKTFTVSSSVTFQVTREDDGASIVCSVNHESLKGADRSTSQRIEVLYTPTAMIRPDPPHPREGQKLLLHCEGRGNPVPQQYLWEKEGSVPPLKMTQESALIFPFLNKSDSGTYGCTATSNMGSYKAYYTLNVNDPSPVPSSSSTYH


Columns and labels:
Test in all cases: ELISA, coated antigen, 0 ng/ml antibody (blank control)
[1] = biological target: T1, Nectin-1
Protocol: (§1) Coating: Nectin-1, Nectin-2, Nectin-3, Nectin-4, Nectin-like-1, Nectin-like-2, Nectin-like-3, Nectin-like-4, and Nectin-like-5 were diluted to 5 μg/ml in coating buffer (carbonate buffer, pH 9.6) respectively. A 96-well plate was coat with 100 μl per well and incubated overnight at 2-8° C.;
(§2) Sample loading: The plate was taken out, patted dry, and washed twice with 200 μl/well of PBST, then patted dry. The Nectin-4 antibodies prepared in Example 1 (antibody MM11, antibody R012, and antibody R036) were diluted with 1% BSA/PBST to concentrations of 10 μg/ml, 1 μg/ml, 100 ng/ml, and 10 ng/ml, respectively. 1% BSA/PBST solution for dilution was set as a blank control. 100 μl per well was added to the 96-well plate, and incubated at room temperature for 2 hours;
(§3) Reaction termination and plate reading: 100 μl/well of 1 mol/L H3PO4 was added to terminate the reaction and the plated was read. The absorbances of wells in the plate at 450 nm with 650 nm as reference wavelength were read and recorded as OD_{450 nm-650 nm}.

[2] = biological target: T2, Nectin-like-3
Protocol: as §1, §2, §3

[3] = biological target: T3, Nectin-like-5
Protocol: as §1, §2, §3

[4] = biological target: T4, Nectin-2
Protocol: as §1, §2, §3

[5] = biological target: T5, recombinant human Nectin-4 protein
Protocol: as §1, §2, §3

[6] = biological target: T6, Nectin-like-1
Protocol: as §1, §2, §3

Binder	OD detection value [1]	OD detection value [2]	OD detection value [3]	OD detection value [4]	OD detection value [5]	OD detection value [6]
Antibody MM11 (antibody, mouse IgG1, kappa, V domains shown, Mouse monoclonal antibody from hybridoma; also called Nectin-4 mouse monoclonal antibody MM11; mouse antibody MM11) VH: DVQLQESGPGLVKPSQSLSLTCSVTGYSITSNFYWNWIRQFPGNRLEWMGYISYDGSNNYNPSLKNRISISRDTSKNQFFLKLNSVTTEDTATYYCVRADYWGQGTLVTVSA VL: DTVMTQTPLSLPVSLGDQASISCRSSQSLESSDGHAYLNWYLQKPGQSPQLLIYRVSNRFSGVLHRFSGSGSGTDFTLKISRVEAEDLGVYFCLQFTHVPFTFGSGTKLEIKR	0.005 OD450 nm-650 nm	0.027 OD450 nm-650 nm	0.011 OD450 nm-650 nm	0.007 OD450 nm-650 nm	0.008 OD450 nm-650 nm	0.007 OD450 nm-650 nm
Antibody R012 (antibody, V domains shown, Rabbit monoclonal antibody from phage display; also called Nectin-4 rabbit monoclonal antibody R012; rabbit antibody R012) VH: SKSVEESGGRLVTPGTPLTLTCTVSGFSLSTYAMSWVRQAPGKGLEYIGIISGRGTTYYASWLKGRFTISKTSTTVDLKITSPTTEDTATYFCARDAGISDVYTGYFNLWGQGTLVTVSS VL: QPVLAQLPSASAALGASAKLTCTLSSAHRTYTIAWYQQQQGEAPRYLMMLKSDGSYTKGTGVPDRFSGSSSGADRYLIISSVQAADEADYYCGADDSGGYVFGGGTQLTVTG	0.007 OD450 nm-650 nm	0.008 OD450 nm-650 nm	0.008 OD450 nm-650 nm	0.009 OD450 nm-650 nm	0.008 OD450 nm-650 nm	0.008 OD450 nm-650 nm
Antibody R036 (antibody, V domains shown, Rabbit monoclonal antibody from phage display; also called Nectin-4 rabbit monoclonal antibody R036; rabbit antibody R036) VH: SQSVEESGGRLVTPGTPLTLTCTVSGFSLSSYAMSWVRQAPGKGLEYIGIIGGRGTTYYAIWAKGRFTISKTSTTVDLKITSPTTEDTATYFCARDAGTTYVGTTYVATGYFNLWGQGTLVTVSS VL: QPVLTQPPSASAALGASAKLTCTLSSAHKTYTIAWYQQQQGEAPRYLMILKSDGSYTRGTGVPDRFSGSSSGADRYLIISSVQADDEADYYCGADDSGGYVFGGGTQLTVTG	0.007 OD450 nm-650 nm	0.007 OD450 nm-650 nm	0.008 OD450 nm-650 nm	0.007 OD450 nm-650 nm	0.007 OD450 nm-650 nm	0.007 OD450 nm-650 nm
